Experimental data taken from patent US20240425587A1 (Alector, published 2024).

Tests used:
[1] = target: T1, human PILRA, c-term His-Avi tag (human, UniProt Q9UKJ1 20-197, limits assumed); assay: SPR (Biacore), antibody captured, PILRA as analyte
T1 construct: not shown: C-terminal His-Avi tag
Protocol: Experiments were performed to determine the kinetics of anti-PILRA antibody binding to human […]. The assay is depicted in FIG. 6. A rabbit anti-PILRA was used as a positive control, and H1 LALAPS was used as a negative control. Human PILRA (human PILRA, c-term His-Avi tag, 0.68 mg/mi) was used as the antigen. The running buffer was HBSTE/0.5% BSA, pH 7.4, and the regeneration solution was 10 mM glycine-HCl (pH 2.1). In the assay, antibodies were captured at 10 μg/ml by immobilized anti-huFc or anti-msFc on a Biacore CM5 chip, and human PILRA flowed at 33, 100, and 300 nM. The surface was regenerated after each analyte, and all curves were double-referenced with buffer injections.

[2] = target: T2, human PILRA, G78 variant, ectopically expressed on 293 cells (human, UniProt Q9UKJ1 20-303); assay: flow cytometry; blocking of NPDC1-hIgG1 binding to 293 cells expressing human PILRA G78
T2 construct: the cells are labelled G78; also called hA G78 OE; hA

[3] = target: T3, murine PILRB, ectopically expressed on 293 cells (murine, UniProt Q2YFS2 29-224); assay: flow cytometry, 293 cells expressing target
T3 construct: whole, on cells; also called mB
Protocol: (§1) Briefly, conditioned media containing antibodies were incubated with 293 cells for 30 min at 4° C., washed twice, and then detected with anti-mouse IgG Alexa 647.

[4] = target: T2, human PILRA, G78 variant, ectopically …; assay: flow cytometry, 293 cells expressing target
Protocol: as §1

[5] = target: T4, murine PILRA, ectopically expressed on 293 cells (murine, UniProt Q2YFS3 32-302); assay: flow cytometry, 293 cells expressing target
T4 construct: also called mA
Protocol: as §1

[6] = target: T5, human PILRB, ectopically expressed on 293 cells (human, UniProt Q9UKJ0 20-227); assay: flow cytometry, 293 cells expressing target
T5 construct: also called hB
Protocol: as §1

[7] = target: cynomolgus PILRA, ectopically expressed on 293 cells (cynomolgus monkey); assay: flow cytometry, 293 cells expressing target
Protocol: as §1

T1 sequence (Q9UKJ1 20-197 limits assumed): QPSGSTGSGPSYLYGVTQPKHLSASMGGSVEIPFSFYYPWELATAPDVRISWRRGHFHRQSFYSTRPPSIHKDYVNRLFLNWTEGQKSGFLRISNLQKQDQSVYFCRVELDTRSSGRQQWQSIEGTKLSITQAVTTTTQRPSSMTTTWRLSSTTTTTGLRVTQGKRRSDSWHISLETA
T2 sequence (Q9UKJ1 other isoform, or with tags, fused parts or gaps mutant): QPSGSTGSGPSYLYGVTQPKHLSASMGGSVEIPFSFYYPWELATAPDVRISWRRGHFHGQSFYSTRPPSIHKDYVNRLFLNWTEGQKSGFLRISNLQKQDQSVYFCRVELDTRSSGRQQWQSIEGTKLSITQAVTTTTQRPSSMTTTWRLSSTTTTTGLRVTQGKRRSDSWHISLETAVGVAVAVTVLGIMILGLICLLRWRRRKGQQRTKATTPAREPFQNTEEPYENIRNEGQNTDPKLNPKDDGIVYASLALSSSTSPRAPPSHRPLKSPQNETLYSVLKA
T5 sequence (Q9UKJ0 20-227): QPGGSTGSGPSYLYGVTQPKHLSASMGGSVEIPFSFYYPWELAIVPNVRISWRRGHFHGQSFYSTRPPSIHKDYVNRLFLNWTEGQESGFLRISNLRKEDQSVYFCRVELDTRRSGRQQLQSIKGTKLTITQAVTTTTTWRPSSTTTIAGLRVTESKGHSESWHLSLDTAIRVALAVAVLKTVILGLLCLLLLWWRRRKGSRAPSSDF
T3 sequence (Q2YFS2 29-224): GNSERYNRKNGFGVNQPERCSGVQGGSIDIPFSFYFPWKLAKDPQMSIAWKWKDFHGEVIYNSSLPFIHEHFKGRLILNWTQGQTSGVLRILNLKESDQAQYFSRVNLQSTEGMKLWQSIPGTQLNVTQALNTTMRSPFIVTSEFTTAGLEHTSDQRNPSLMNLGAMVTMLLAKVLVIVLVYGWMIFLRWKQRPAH
cynomolgus PILRA, ectopically expressed on 293 cells (cynomolgus monkey), sequence (chain, as listed by the source): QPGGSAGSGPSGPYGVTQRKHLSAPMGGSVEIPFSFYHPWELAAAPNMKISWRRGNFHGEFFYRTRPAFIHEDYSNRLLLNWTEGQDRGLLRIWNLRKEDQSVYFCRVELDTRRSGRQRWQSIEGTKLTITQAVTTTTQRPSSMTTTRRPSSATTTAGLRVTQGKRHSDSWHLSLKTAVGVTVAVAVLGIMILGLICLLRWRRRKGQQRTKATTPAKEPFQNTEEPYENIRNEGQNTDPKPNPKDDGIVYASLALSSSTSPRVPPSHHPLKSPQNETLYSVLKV
T4 sequence (Q2YFS3 32-302): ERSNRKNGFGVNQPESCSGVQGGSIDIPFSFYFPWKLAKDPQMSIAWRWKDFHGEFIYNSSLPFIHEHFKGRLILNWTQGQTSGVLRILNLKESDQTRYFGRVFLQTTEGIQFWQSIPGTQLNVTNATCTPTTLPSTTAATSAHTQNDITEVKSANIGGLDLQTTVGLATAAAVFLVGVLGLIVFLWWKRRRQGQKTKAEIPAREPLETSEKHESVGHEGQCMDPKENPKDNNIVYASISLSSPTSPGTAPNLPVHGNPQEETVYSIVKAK

Binder | Kd [1] [nM] | koff [1] [s⁻¹] | kon [1] [M⁻¹ s⁻¹] | IC50 [2] [µg/mL] | binding result [3] | EC50 [4] [µg/mL] | binding result [5] | binding result [6] | EC50 [7] [µg/mL] | binding result [7] | EC50 [6] [µg/mL] | t½ [1] [min]
A4 (antibody, V domains shown, phage campaign) VH: QVQLVQSGAEVKKPGSSVKVSCKASGYTFTGYAVNWVRQAPGQGLEWMGGIIPIFGTANYAQKFQGRVTITADESTSTAYMELSSLRSEDTAVYYCARNLGYSSGWSGYYYGMDVWGQGTMVTVSS VL: EIVMTQSPATLSVSPGERATLSCRASQSVSSNYLAWYQQKPGQAPRLLIYGASTRATGIPARFSGSGSGTEFTLTISSLQSEDFAVYYCQQYGSSSFTFGPGTKLEIK | 113 | 0.005 | 44000 | 0.32 | no binding | 0.7 | no binding | no binding | 1.3 |  |  | 
A1 (antibody, V domains shown, phage campaign) VH: QVQLVQSGAEVKKPGSSVKVSCKASGYTFINHDINWVRQAPGQGLEWMGWMNPNSGNTGYAQKFQGRVTITADESTSTAYMELSSLRSEDTAVYYCARDRRGSYYGLMDWFDPWGQGTLVTVSS VL: DIQMTQSPSSLSASVGDRVTITCRASQSISRWLAWYQQKPGKAPKLLIYDASNLETGVPSRFSGSGSGTDFTLTISSLQPEDFATYYCQQSYSTPSFGQGTKVEIK | 99.6 | 0.0038 | 38000 | 1.9 | no binding | 1.9 | no binding | no binding |  | no binding |  | 
A5 (antibody, V domains shown, phage campaign) VH: QVQLVQSGAEVKKPGSSVKVSCKASGYTFTDYYMNWVRQAPGQGLEWMGGIIPIFGTADYAQRFQGRVTITADESTSTAYMELSSLRSEDTAVYYCARDAGYYGMDVWGQGTLVTVSS VL: EIVMTQSPATLSVSPGERATLSCRASQSVSNYLAWYQQKPGQAPRLLIYGASTRATGIPARFSGSGSGTEFTLTISSLQSEDFAVYYCQQFDDLPLTFGPGTKVEIK | 32.1 | 0.0045 | 140000 | 0.64 | no binding | 3.4 | no binding | no binding | 2.8 |  |  | 
E5 (antibody, V domains shown) VH: QVQLVQSGAEVKKPGSSVKVSCKASGYTFTSYGINWVRQAPGQGLEWMGWINPNSGDTLYAQNFQGRVTITADESTSTAYMELSSLRSEDTAVYYCARGPEPYWYFDLWGRGTLVTVSS VL: EIVMTQSPATLSVSPGERATLSCRASQNIDSRFLAWYQQKPGQAPRLLIYGASTRATGIPARFSGSGSGTEFTLTISSLQSEDFAVYYCQQSFSTPLTFGGGTKVEIK | 76.2 | 0.0061 | 80000 | 0.22 | no binding | 0.1 | no binding |  |  | no binding | 0.3 | 
A2 (antibody, V domains shown, phage campaign) VH: EVQLLESGGGLVKPGGSLRLSCAASGFTFSDYYMSWVRQAPGKGLEWVSSISIGGGGTYYADSVKGRFTISRDDSKNTLYLQMNSLRAEDTAVYYCASHGFGARKMDFWGQGTTVTVSS VL: DIQMTQSPSSLSASVGDRVTITCRASQSIRSYVNWYQQKPGKAPKLLIYDASNLETGVPSRFSGSGSGTDFTLTISSLQPEDFATYYCQQSYSPPITFGQGTKVEIK | 193 | 0.0063 | 33000 | 0.78 | no binding | 0.3 | no binding |  |  | no binding |  | 
E21 (antibody, V domains shown, phage campaign) VH: QVQLVQSGAEVKKPGSSVKVSCKASGYTFSNYDINWVRQAPGQGLEWMGGIIPIFGTANYALKFQGRVTITADESTSTAYMELSSLRSEDTAVYYCARGGPWLYFDYWGQGTLVTVSS VL: DIQMTQSPSSLSASVGDRVTITCRASQSISTYLNWYQQKPGKAPKLLIYAASTLQSGVPSRFSGSGSGTDFTLTISSLQPEDFATYYCQQSYSSPLTFGQGTKLEIK | 51.3 | 0.0061 | 120000 | 0.6 | no binding | 0.7 | no binding |  |  | no binding | 3.4 | 
A3 (antibody, V domains shown, phage campaign) VH: EVQLLESGGGLVQPGGSLRLSCAASGFTFSRYEMNWVRQAPGKGLEWVAGISYDGSYEYYADSVKGRFTISRDNSKNTLYLQMNSLRAEDTAVYYCAKGSYGYDAFDIWGQGTMVTVSS VL: DIQMTQSPSSLSASVGDRVTITCRASQSISSWLAWYQQKPGKAPKLLIYATSTLQSGVPSRFSGSGSGTDFTLTISSLQPEDFATYYCQQSYSPPYTFGQGTKVEIK | 93.7 | 0.0067 | 71000 | 0.38 | no binding | 0.1 | no binding | no binding |  | no binding |  | 
A14 (antibody, V domains shown, phage campaign) VH: QVQLVQSGAEVKKPGASVKVSCKASGYTFTSYYMYWVRQAPGQGLEWMGWMNPNSGNTGFAQKFQGRVTMTRDTSTSTVYMELSSLRSEDTAVYYCASGYYDSWSGETDYGMDVWGQGTTVTVSS VL: DIQMTQSPSSLSASVGDRVTITCRASQSISSYLNWYQQKPGKAPKLLIYDASTLESGVPSRFSGSGSGTDFTLTISSLQPEDFATYYCQQSYKTPYTFGQGTKLEIK | 12.2 | 0.0012 | 99000 |  | no binding | 0.5 | no binding |  | 11.5 |  | 12.9 | 9.6
A6 (antibody, V domains shown, phage campaign) VH: QVQLVQSGAEVKKPGSSVKVSCKASGYTFINYDINWVRQAPGQGLEWMGGIIPIFGAPVYAQDFQGRVTITADESTSTAYMELSSLRSEDTAVYYCAIADGAGWFDPWGQGTLVTVSS VL: not shown | 86.5 | 0.0052 | 61000 | 5.7 | no binding | 1.7 | no binding | no binding | 0.3 |  |  | 
A7 (antibody, V domains shown, phage campaign) VH: QVQLVQSGAEVKKPGSSVKVSCKASGYTFTSYDINWVRQAPGQGLEWMGGIIPIFGTANYAQKFQGRVTITADESTGTAYMELSSLRSEDTAVYYCAIADGAGWFDPWGQGTLVTVSS VL: not shown | 75.7 | 0.0064 | 85000 | 0.77 | no binding | 0.5 | no binding | no binding | 0.3 |  |  | 
A16 (antibody, human IgG1, kappa, L234A L235A, V domains shown) VH: QVQLVQSGAEVKKPGSSVKVSCKASGYNFLNYDVNWVRQAPGQGLEWMGGIIPIFGTANYAQKFQGRVTITADESTSTAYMELSSLRSEDTAVYYCATGVGAGWFDPWGQGTLVTVSS VL: not shown | 47 | 0.0042 | 90000 | 0.38 | no binding | 0.2 | no binding | no binding | 0.2 |  |  | 
A12 (antibody, V domains shown, phage campaign) VH: QVQLVQSGAEVKKPGASVKVSCKASGYNFNDYYIHWVRQAPGQGLEWMGWISAYNGNTNYAQKLQGRVTMTRDTSTSTVYMELSSLRSEDTAVYYCARDGWYCSSSSCYTGSDYWGQGTLVTVSS VL: DIQMTQSPSSLSASVGDRVTITCRASQSISNYLNWYQQKPGKAPKLLIYGASTLHSGVPSRFSGSGSGTDFTLTISSLQPEDFATYYCQQSYSTPFTFGPGTKVDIK | 19.3 | 0.0012 | 63000 |  | no binding | 0.4 | no binding |  | 8.6 |  | 8.6 | 9.6
A15 (antibody, V domains shown, phage campaign) VH: QVQLVQSGAEVKKPGASVKVSCKASGGTFSNYGLTWVRQAPGQGLEWMGWINLNSGGTYYAQKFQGRVTMTRDTSTSTVYMELSSLRSEDTAVYYCARDRYSSGWYEGDAFDIWGQGTMVTVSS VL: DIQMTQSPSSLSASVGDRVTITCRASQGISNWLAWYQQKPGKAPKLLIYAASSLQSGVPSRFSGSGSGTDFTLTISSLQPEDFATYYCQQSYSTPWTFGPGTKVDIK |  |  |  | 0.27 | no binding | 0.2 | no binding |  | 11.1 |  | 10.5 | 
